Experimental data reported in patent US6960559B1, “Neurite growth regulatory factors” (University of Zurich, priority 1988, dated 2005).
“And” between values parts separate entries of the source, which are not always exact repeats. Equal entries are not always repeated.

B1: soybean trypsin inhibitor: serine protease blocker (protein, UniProt P01070 25-205, looked up)
Trypsin inhibitor A: DFVLDNEGNPLENGGTYYILSDITAFGGIRAAPTGNERCPLTVVQSRNELDKGIGTIISSPYRIRFIAEGHPLSLKFDSFAVIMLCVGIPTEWSVVEDLPEGPAVKIGENKDAMDGWFRLERVSDDEFNNYKLVFCPQQAEDDKCGDIGISIDHDDGTRRLVVSKNKPLVVQFQKLDKESL
B2: papain: cysteine protease (protein, UniProt P00784 134-345, looked up)
Papain: IPEYVDWRQKGAVTPVKNQGSCGSCWAFSAVVTIEGIIKIRTGNLNEYSEQELLDCDRRSYGCNGGYPWSALQLVAQYGIHYRNTYPYEGVQRYCRSREKGPYAAKTDGVRQVQPYNEGALLYSIANQPVSVVLEAAGKDFQLYRGGIFVGPCGNKVDHAVAAVGYGPNYILIKNSWGTGWGENGYIRIKRGTGNSYGVCGLYTSSFYPVKN
B3: 2-macroglobulin: general protease inhibitor (protein, UniProt P01023 24-1474, looked up)
Alpha-2-macroglobulin: SVSGKPQYMVLVPSLLHTETTEKGCVLLSYLNETVTVSASLESVRGNRSLFTDLEAENDVLHCVAFAVPKSSSNEEVMFLTVQVKGPTQEFKKRTTVMVKNEDSLVFVQTDKSIYKPGQTVKFRVVSMDENFHPLNELIPLVYIQDPKGNRIAQWQSFQLEGGLKQFSFPLSSEPFQGSYKVVVQKKSGGRTEHPFTVEEFVLPKFEVQVTVPKIITILEEEMNVSVCGLYTYGKPVPGHVTVSICRKYSDASDCHGEDSQAFCEKFSGQLNSHGCFYQQVKTKVFQLKRKEYEMKLHTEAQIQEEGTVVELTGRQSSEITRTITKLSFVKVDSHFRQGIPFFGQVRLVDGKGVPIPNKVIFIRGNEANYYSNATTDEHGLVQFSINTTNVMGTSLTVRVNYKDRSPCYGYQWVSEEHEEAHHTAYLVFSPSKSFVHLEPMSHELPCGHTQTVQAHYILNGGTLLGLKKLSFYYLIMAKGGIVRTGTHGLLVKQEDMKGHFSISIPVKSDIAPVARLLIYAVLPTGDVIGDSAKYDVENCLANKVDLSFSPSQSLPASHAHLRVTAAPQSVCALRAVDQSVLLMKPDAELSASSVYNLLPEKDLTGFPGPLNDQDNEDCINRHNVYINGITYTPVSSTNEKDMYSFLEDMGLKAFTNSKIRKPKMCPQLQQYEMHGPEGLRVGFYESDVMGRGHARLVHVEEPHTETVRKYFPETWIWDLVVVNSAGVAEVGVTVPDTITEWKAGAFCLSEDAGLGISSTASLRAFQPFFVELTMPYSVIRGEAFTLKATVLNYLPKCIRVSVQLEASPAFLAVPVEKEQAPHCICANGRQTVSWAVTPKSLGNVNFTVSAEALESQELCGTEVPSVPEHGRKDTVIKPLLVEPEGLEKETTFNSLLCPSGGEVSEELSLKLPPNVVEESARASVSVLGDILGSAMQNTQNLLQMPYGCGEQNMVLFAPNIYVLDYLNETQQLTPEIKSKAIGYLNTGYQRQLNYKHYDGSYSTFGERYGRNQGNTWLTAFVLKTFAQARAYIFIDEAHITQALIWLSQRQKDNGCFRSSGSLLNNAIKGGVEDEVTLSAYITIALLEIPLTVTHPVVRNALFCLESAWKTAQEGDHGSHVYTKALLAYAFALAGNQDKRKEVLKSLNEEAVKKDNSVHWERPQKPKAPVGHFYEPQAPSAEVEMTSYVLLAYLTAQPAPTSEDLTSATNIVKWITKQQNAQGGFSSTQDTVVALHALSKYGAATFTRTGKAAQVTIQSSGTFSSKFQVDNNNRLLLQQVSLPELPGEYSMKVTGEGCVYLQTSLKYNILPEKEEFPFALGVQTLPQTCDEPKAHTSFQISLSVSYTGSRSASNMAIVDVKMVSGFIPLKPTVKMLERSNHVSRTEVSSNHVLIYLDKVSNQTLSLFFTVLQDVPVRDLKPAIVKVYDYYETDEFAIAEYNAPCSKDLGNA
B4: tPA: tissue-type plasminogen activator (protein, UniProt P00750 36-562, looked up)
Tissue-type plasminogen …: SYQVICRDEKTQMIYQQHQSWLRPVLRSNRVEYCWCNSGRAQCHSVPVKSCSEPRCFNGGTCQQALYFSDFVCQCPEGFAGKCCEIDTRATCYEDQGISYRGTWSTAESGAECTNWNSSALAQKPYSGRRPDAIRLGLGNHNYCRNPDRDSKPWCYVFKAGKYSSEFCSTPACSEGNSDCYFGNGSAYRGTHSLTESGASCLPWNSMILIGKVYTAQNPSAQALGLGKHNYCRNPDGDAKPWCHVLKNRRLTWEYCDVPSCSTCGLRQYSQPQFRIKGGLFADIASHPWQAAIFAKHRRSPGERFLCGGILISSCWILSAAHCFQERFPPHHLTVILGRTYRVVPGEEEQKFEVEKYIVHKEFDDDTYDNDIALLQLKSDSSRCAQESSVVRTVCLPPADLQLPDWTECELSGYGKHEALSPFYSERLKEAHVRLYPSSRCTSQHLLNRTVTDNMLCAGDTRSGGPQANLHDACQGDSGGPLVCLNDGRMTLVGIISWGLGCGQKDVPGVYTKVTNYLDWIRDNMRP

Columns and labels:
[1] = tested on: C6 plasma membrane associated metalloendoprotease; assay: Enzyme assay: cbz-FAF[125I]Y-NH2 degradation by C6 plasma membranes with protease blockers; assay type: biochemical, rat
Method: For most experiments, 70-80% confluent cell layers (1 cm^2 wells, 100 μl MEMα) or 2-5 μg C6 plasma membrane (100 μl MEMα) were used. […] If indicated, cell layers or plasma membrane suspensions were preincubated for 30 min with protease blockers or peptides. NEM or iodacetamide incubations of plasma membranes were performed at pH 8.5. The incubation was stopped by loading a 10 μl aliquot of the incubation medium on a thin layer chromatography plate (10 cm height, Kieselgel 60 F254, MERCK, Germany) and air dried. […] Plates were then air dried and exposed on Kodak X-OMAT films (NY, USA) with an intensifying screen. To identify the degradation products on thin-layer chromatography, we run reference peptides under the same conditions.
(§1) For the quantification of the activity, the reaction was stopped by addition of an equal volume of chloroform. […] Activity is expressed as % radioactivity contained in the aqueous phase. 100% is the sum of the radioactivity of both phases.

cbz-FAF[^125I]Y-NH2 = assay: Degradation of cbz-FAF[125I]Y-NH2 by defined proteases and C6 cell fractions; assay type: biochemical; settings: 37° C., pH 7.4
Method: Preparation of plasma membrane from C6 cells was performed according to (Raper and Kapfhammer, 1990, Neuron 2:21-29) with some modifications. Briefly, C6 cells were cultured in 30 culture dishes (13.5 cm diameter). At confluency, the culture medium was removed and the cell layers were frozen to −20° C. All subsequent manipulations were performed at 4° C.: cell debris were collected using a rubber policeman in 100 ml CMF-Hank's and further homogenized by 10 strokes in a Dounce homogenizer with teflon plunger. A small aliquot of this suspension was stored at −20° C. and used later (homogenate-fraction). The nuclear pellet was obtained by low speed centrifugation (10 min, 1000×g) in a Sorvall S22 rotor and stored at […] A crude vesicular fraction was obtained by centrifugating the nuclear supernatant in a Sorvall S22 rotor (20,000×g, 30 min), and was resuspended in 10 ml CMF-Hank's. After adding 20 ml 2.25 M sucrose in CMF-Hank's, this suspension was loaded on 4×8 ml 2.25 M sucrose in CMF-Hank's and centrifuged at 80,000×g for 1 h in a Beckman SW28 motor. […]
as §1

C6 cells = assay: C6 cell spreading on CNS myelin or PLYS with protease inhibitors; assay type: cell-based, rat; settings: C6 cells; spreading on PLYS minus spreading on CNS myelin
Method: Rat C6, mouse NIH 3T3 and B16 cells were cultured in Dulbecco's modified Eagle's medium (DMEM) supplemented with 10% fetal calf serum (FCS), usually to maximally 70-80% confluency. Cells were harvested with a short trypsin treatment (0.1% in Ca^2+/Mg^2+-free Hank's medium for 90 seconds) stopped by addition of FCS in excess, collected by centrifugation. Cells were resuspended in either DMEM/FCS or defined serum-free medium (MEM) and used for experiments. […]
Myelin from rat spinal cord (CNS) or sciatic nerve (PNS) purified on a discontinuous sucrose gradient as described in Section 6.1.5., was dried overnight onto PLYS coated wells (20 μg protein/well of 100 mm^2 surface). […] Experiments were scored at different time points using a phase contrast microscope equipped with a photocamera. Quantifications were done using a surface integration program; three arbitrary fields were photographed for each well at a magnitude of 80×, at least 25 cells per picture were measured. […] Results are expressed as μ^2 of projected cell surface, or as degree, which was calculated by subtracting from the projected surface value of a spreading cell, the surface value of a completely spheric cell.

Row | Molecule | Amount necessary to degrade 50% of substrate in 30 min (cbz-FAF[^125I]Y-NH2) | other results
1 | B1 | – | Effect on cbz-FAF[^125I]Y-NH2 degradation by C6 plasma membranes, in words [1]: had no effect
2 | B2 | 2 µg and 2.0 µg | –
3 | B3 | – | Inhibition on CNS (%) (C6 cells): 18%
4 | B4 | >100 µg | –
